{"source": "the supplement of paper PMC9732359", "note": "± gives the uncertainty stated by the source.", "data": [{"assay": "protein stability index of a GFP-peptide fusion (yeast GPS) (PSI 1-4); higher = more stable; sorted into four equal gates, so the index is relative within each strain", "settings": "ubr1∆", "outline": "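Mid-log yeast cultures in leucine-free medium, carrying a pooled plasmid library, were sorted into four equal gates by their GFP/Cherry fluorescence ratio. Each plasmid expressed Cherry along with GFP fused upstream of a tiled 17-residue yeast protein peptide. Plasmids recovered from each gate were PCR-amplified and Illumina-sequenced, with reads assigned to strains by barcodes. The protein stability index was obtained by summing each gate's read frequency weighted by its gate number.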", "values": [{"sequence": "IVKVFHGAFMDIIWLQR [RRP6]", "protein stability index": "1.18 ± 0.033"}, {"sequence": "IVNVNFMKSVIRSREAF [DIS3]", "protein stability index": "2.31 ± 0.04"}, {"sequence": "IVQIDATPFRQWFEAHY [RPS8A]", "protein stability index": "2.697 ± 0.019"}, {"sequence": "IVTGNLVLDLLTWLSSF [IRR1]", "protein stability index": "2.29 ± 0.039"}, {"sequence": "IVTKDGVRKEFYELKRD [PRE7]", "protein stability index": "3.16 ± 0.07"}, {"sequence": "IVVQLNGRLNKCGVISP [RPS22A]", "protein stability index": "3.49 ± 0.079"}, {"sequence": "IYISNLVRSIIAFDDLI [RPN8]", "protein stability index": "1.27 ± 0.27"}, {"sequence": "IYLSRFLIKASVREINL [SSN8]", "protein stability index": "1.25 ± 0.16"}, {"sequence": "IYNNIVSNIEGILDEIM [RGR1]", "protein stability index": "2.46 ± 0.05"}, {"sequence": "IYNSASKASMQKEQNVN [YCS4]", "protein stability index": "2.17 ± 0.077"}, {"sequence": "IYRTTRQDGSYTYHSTN [ARP9]", "protein stability index": "2.53 ± 0.058"}, {"sequence": "IYRVRVRRGNRKRPVPK [RPL15A]", "protein stability index": "3.2 ± 0.14"}, {"sequence": "IYSRDIGAELKREESES [SNF2]", "protein stability index": "3.01 ± 0.071"}, {"sequence": "KAAAGAGSAALKIIHDT [RPO31]", "protein stability index": "1.77 ± 0.18"}, {"sequence": "KAIPTFSFGKPFFSSNT [YIL149C/MLP2]", "protein stability index": "3.011 ± 0.028"}, {"sequence": "KAKSNQTQREKAPLQPN [IRR1]", "protein stability index": "3.07 ± 0.05"}, {"sequence": "KALLFFNNEKETEKFAL [RPN12]", "protein stability index": "3.17 ± 0.083"}, {"sequence": "KALPIRRDDEVLVVRGS [RPL26A]", "protein stability index": "3.32 ± 0.15"}, {"sequence": "KALVLFVPVPALSAYHK [RPS7B]", "protein stability index": "2.4 ± 0.041"}, {"sequence": "KAPEQFIENFLTNDTFE [YML103C/NUP188]", "protein stability index": "3.02 ± 0.075"}, {"sequence": "KCQTCQEGMNECPGHFG [RPO21]", "protein stability index": "3.26 ± 0.091"}, {"sequence": "KDAEDETSSDGSKSDGS [RPN1]", "protein stability index": "3.29 ± 0.035"}, {"sequence": "KDAEYLRNYLTPNVREE [PUP1]", "protein stability index": "3.16 ± 0.081"}, {"sequence": "KDALSNSILSVRDPWSI [SRB2]", "protein stability index": "3.36 ± 0.093"}, {"sequence": "KDEEETEYFENKQSVSN [DSN1]", "protein stability index": "3.53 ± 0.054"}, {"sequence": "KDGAKFIEVRNFLGDKK [RPL9A]", "protein stability index": "1.35 ± 0.27"}, {"sequence": "KDILNLASEVGDPALVY [ECM29]", "protein stability index": "2.87 ± 0.076"}, {"sequence": "KDKFNQIPLHRAASVGS [NAS6]", "protein stability index": "2.26 ± 0.082"}, {"sequence": "KDLKDDSIYTKPVKVAL [YJL039C/NUP192]", "protein stability index": "3.02 ± 0.04"}, {"sequence": "KDLKHIIYYKFNKNLGK [PRP8]", "protein stability index": "1.17 ± 0.061"}, {"sequence": "KDLTLCRYSCLALERMV [YCS4]", "protein stability index": "1.79 ± 0.13"}, {"sequence": "KDMKLLRYYKNIWLNNK [NUT1]", "protein stability index": "1.28 ± 0.054"}, {"sequence": "KDMLYSGITGECLQAYI [RET1]", "protein stability index": "2.31 ± 0.057"}, {"sequence": "KDQALIGTINSIVHINS [SIR2]", "protein stability index": "1.41 ± 0.027"}, {"sequence": "KDSYVRIANIEQNHLDN [YDL088C/ASM4]", "protein stability index": "3.18 ± 0.13"}, {"sequence": "KDTNDHVDKRTKIDQEA [ISW2]", "protein stability index": "2.57 ± 0.036"}, {"sequence": "KDVAKPTGPKTAIDKNG [FAS2]", "protein stability index": "3.19 ± 0.1"}, {"sequence": "KDVKARIAAGDGDDDDE [QCR9]", "protein stability index": "2.24 ± 0.12"}, {"sequence": "KDVKAWAGKRLWDQDIA [COR1]", "protein stability index": "3.2 ± 0.091"}, {"sequence": "KDVLAQTSVTTNFNEIT [SWP82]", "protein stability index": "2.76 ± 0.045"}, {"sequence": "KEEELIERDSLVDDENE [BRN1]", "protein stability index": "3.25 ± 0.15"}, {"sequence": "KEIYTTLGNQMLSAHNI [YJR042W/NUP85]", "protein stability index": "3.08 ± 0.063"}, {"sequence": "KEKLIGWYHSGPKLRAS [RPN8]", "protein stability index": "2.63 ± 0.042"}, {"sequence": "KEKWPSLELQSFQKIPL [YML103C/NUP188]", "protein stability index": "2.73 ± 0.11"}, {"sequence": "KELKEKEAAESPEEADV [PUP2]", "protein stability index": "3.32 ± 0.054"}, {"sequence": "KENFILDSLMKTTRLLL [YJL039C/NUP192]", "protein stability index": "1.61 ± 0.05"}, {"sequence": "KEPRLVIVTDPRSDAQA [RPS0A]", "protein stability index": "3.05 ± 0.1"}, {"sequence": "KFADGFLIHSGQPVNDF [RPS3]", "protein stability index": "3.06 ± 0.087"}, {"sequence": "KFFMKHGLILELQKIWQ [SRB5]", "protein stability index": "3.18 ± 0.037"}, {"sequence": "KFGACVAQGIMNAGGRN [RPN2]", "protein stability index": "2.52 ± 0.13"}, {"sequence": "KFIALCEQQPSQEREFS [SIN4]", "protein stability index": "2.79 ± 0.056"}, {"sequence": "KFKHIDDKYGRKFALEK [SRP72]", "protein stability index": "3 ± 0.052"}, {"sequence": "KFKKEKFDIIIVDTSGR [SRP54]", "protein stability index": "3.1 ± 0.04"}, {"sequence": "KFNNTQRESQIGAAELN [SNF12]", "protein stability index": "3.38 ± 0.09"}, {"sequence": "KGDGMTSAVASIGSIYQ [RPN1]", "protein stability index": "3.03 ± 0.14"}, {"sequence": "KGDINPEVSMIRDIREK [RPB2]", "protein stability index": "2.68 ± 0.13"}, {"sequence": "KGGIIASVGDILKTLER [YML031W/NDC1]", "protein stability index": "2.87 ± 0.13"}, {"sequence": "KGGSLYGLGLIYAGFGR [RPN2]", "protein stability index": "2 ± 0.062"}, {"sequence": "KGKARLGTLVNQKTSAV [RPL8A]", "protein stability index": "2.94 ± 0.057"}, {"sequence": "KGSRQCRVCSSHTGLIR [RPS29A]", "protein stability index": "2.9 ± 0.043"}, {"sequence": "KGSRQCRVCSSHTGLVR [RPS29B]", "protein stability index": "2.61 ± 0.03"}, {"sequence": "KGVLLYGPPGTGKTLLA [RPT4]", "protein stability index": "2.29 ± 0.035"}, {"sequence": "KGYLQRGDDGESYAYLA [CDC53]", "protein stability index": "3.25 ± 0.044"}, {"sequence": "KHGAVHLSTYLKVYKVG [RPL21A]", "protein stability index": "3.02 ± 0.065"}, {"sequence": "KIAKRRQVYKPVLDNPF [POP3]", "protein stability index": "2.08 ± 0.066"}, {"sequence": "KIALGSPIVNVLEDVYR [RRI2]", "protein stability index": "2.77 ± 0.098"}, {"sequence": "KIEGVATPQEAQFYLGK [RPL33B]", "protein stability index": "3 ± 0.072"}, {"sequence": "KIESEDDYILSGESVMD [SRB4]", "protein stability index": "2.96 ± 0.075"}, {"sequence": "KIINTHSDMASKMYNTD [PRP8]", "protein stability index": "2.28 ± 0.029"}, {"sequence": "KIIPKDISATQLPKQLW [ITC1]", "protein stability index": "2.32 ± 0.13"}, {"sequence": "KIKAILESVGIEIEDEK [RPP2A]", "protein stability index": "2.99 ± 0.13"}, {"sequence": "KIMQEATQSGGVRPFGV [PRE8]", "protein stability index": "2.95 ± 0.1"}, {"sequence": "KINQERLERRINLTKVT [CSI1]", "protein stability index": "1.37 ± 0.045"}, {"sequence": "KIPILAQHESFLRQKIC [RPN9]", "protein stability index": "2.14 ± 0.038"}, {"sequence": "KIQVVDRHIGCVYSGLI [PRE10]", "protein stability index": "1.36 ± 0.14"}, {"sequence": "KIRARSITLQGDVYDPE [SMC2]", "protein stability index": "1.86 ± 0.067"}, {"sequence": "KISNSEFFNPEIFHLLQ [SIN4]", "protein stability index": "2.16 ± 0.07"}, {"sequence": "KIYKLENGERKLYDAKR [YMR129W/POM152]", "protein stability index": "3.29 ± 0.06"}, {"sequence": "KKAVVKGTNGKKALKVR [RPL25]", "protein stability index": "2.75 ± 0.063"}, {"sequence": "KKCIDFFEMLISKSLTF [RRI2]", "protein stability index": "2.27 ± 0.038"}, {"sequence": "KKDIKIGTNDLFQVESA [SIR4]", "protein stability index": "2.33 ± 0.054"}, {"sequence": "KKDQSVLKSHSNDFEEG [YMR129W/POM152]", "protein stability index": "2.95 ± 0.073"}, {"sequence": "KKENLTRDETVSLIKKY [YML103C/NUP188]", "protein stability index": "2.6 ± 0.078"}, {"sequence": "KKFNMGKEFEARNLIED [RPC53]", "protein stability index": "2.56 ± 0.14"}, {"sequence": "KKIGCYMFANLEFSIYH [CSN12]", "protein stability index": "2.51 ± 0.052"}, {"sequence": "KKISRLPKFLTVQYVRF [UBP6]", "protein stability index": "1.36 ± 0.035"}, {"sequence": "KKIVDSKKLNLKIHQSH [YMR129W/POM152]", "protein stability index": "2.69 ± 0.062"}, {"sequence": "KKKKKGSNQKPKYEPPV [RPT2]", "protein stability index": "3.12 ± 0.076"}, {"sequence": "KKKQQGAKQTQGGAMNK [SRP72]", "protein stability index": "3.58 ± 0.062"}, {"sequence": "KKKRSRTSATREDTPLS [ISW2]", "protein stability index": "3.22 ± 0.13"}, {"sequence": "KKKTTLEDFENFKGLAK [YIL149C/MLP2]", "protein stability index": "2.909 ± 0.026"}, {"sequence": "KKLKPIVAKYDPPIIIF [PRP28]", "protein stability index": "2.37 ± 0.052"}, {"sequence": "KKLLINKDASLALQRGA [DPB4]", "protein stability index": "3.06 ± 0.092"}, {"sequence": "KKMDDYIHRIGRTGRAA [PRP28]", "protein stability index": "3.35 ± 0.07"}, {"sequence": "KKNPNWLEEYHPKLIKN [FAS1]", "protein stability index": "2.14 ± 0.046"}, {"sequence": "KKQKLIEEQDKKVQALQ [ITC1]", "protein stability index": "2.82 ± 0.068"}, {"sequence": "KKSEEKLREKVNDVELA [MTW1]", "protein stability index": "3.06 ± 0.21"}, {"sequence": "KKSKKKWSKKSMKDRAQ [RPS25A]", "protein stability index": "3.6 ± 0.051"}, {"sequence": "KKSQCKKKTTLEDFENF [YIL149C/MLP2]", "protein stability index": "3.14 ± 0.048"}, {"sequence": "KKSVLKQVQDFEENDHP [COR1]", "protein stability index": "2.66 ± 0.067"}, {"sequence": "KKWKKYWQYKAGIPIGL [SWP82]", "protein stability index": "2.01 ± 0.04"}, {"sequence": "KKWNDLKNKNFKCQEKD [SIR2]", "protein stability index": "3.11 ± 0.12"}, {"sequence": "KLHVNWNLNATKPNVLN [SIN4]", "protein stability index": "2.93 ± 0.098"}]}]}
